Results: patent US20230173091A1 (published 2023)

Molecular target: T1, CD20 (Acro Biosystems) (UniProt P11836 1-297)
T1 sequence (looked up): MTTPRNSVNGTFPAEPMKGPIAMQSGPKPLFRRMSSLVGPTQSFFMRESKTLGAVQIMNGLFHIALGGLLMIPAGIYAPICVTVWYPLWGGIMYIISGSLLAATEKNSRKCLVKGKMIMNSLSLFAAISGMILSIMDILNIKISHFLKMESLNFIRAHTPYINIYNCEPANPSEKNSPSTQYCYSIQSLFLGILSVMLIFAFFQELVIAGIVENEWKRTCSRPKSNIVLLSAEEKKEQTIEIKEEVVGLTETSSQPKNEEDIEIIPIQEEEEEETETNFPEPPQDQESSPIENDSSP

B1: rituximab (antibody, human IgG1, kappa, V domains shown)
VH: QVQLQQPGAELVKPGASVKMSCKASGYTFTSYNMHWVKQTPGRGLEWIGAIYPGNGDTSYNQKFKGKATLTADKSSSTAYMQLSSLTSEDSAVYYCARSTYYGGDWYFNVWGAGTTVTVSA
VL: QIVLSQSPAILSASPGEKVTMTCRASSSVSYIHWFQQKPGSSPKPWIYATSNLASGVPVRFSGSGSGTSYSLTISRVEAEDAATYYCQQWTSNPPTFGGGTKLEIKR
  Kd: < 1 pM
  koff: < 1e-07 s⁻¹
  kon: 140000 M⁻¹ s⁻¹
